Measured values from patent publication US20110014669A1, “Production of 1,4 Butanediol in a Microorganism” (Microbia, Inc., priority 2009, published 2011).
Residue numbers refer to the chain shown, from its start. Where two headings read alike, the source gives them in different places.

Assays:
[1] = system: Zygosaccharomyces bailii (ATCC 60594)
[2] = system: Zymomonas mobilis (ATCC 31821); settings: 90 g/L and 135 g/L of BDO
Method: (§5) For each experiment, 50 mL of media was filter-sterilized before adding to pre-sterilized 250 mL triple baffled shake flasks. […] Each strain was grown in four different shake flasks.
(§6) Inocula were freshly grown on agar plates, cotton swabbed into a sterile Falcon® tube containing the same medium used in the shake flask and mixed well. The cell suspension was then inoculated into the prepared shake flasks to initiate the growth evaluation. The growth for each strain was monitored by measuring the OD (at 660 nm) and pH over the time course. If the medium contained glucose, such as Difco® Yeast Malt medium (YM), glucose concentration was monitored by using a YSI 2700 Select Biochemistry Analyzer.
(§7) Since different media and growth conditions were used, results were expressed as % of growth where the control, no BDO flask, represented 100% growth.

[3] = system: Pseudomonas putida (ATCC 700801)
Method: as §5, §6, §7

[4] = system: Yarrowia lipolytica (ATCC 20228)
[5] = system: Corynebacterium glutamicum (ATCC 13032); settings: FIG. 12A
Method: as §5, §6, §7

[6] = system: S. cerevisiae strains (CEN.PK and Fermentis); settings: 135 g/L of BDO
Method: as §5, §6, §7

[7] = system: L-glutamate 5-semialdehyde (GSA); test: Bioconversion (feeding) assay, step A3; assay type: cell-based; parameters: key: +: measureable activity detected in the assay; −: no measurable activity detected in the assay; settings: BDO biosynthetic pathway step A3
Method: Bioconversion assays. The activity of a candidate enzyme towards a given substrate can also be evaluated in vivo using a simple feeding assay. A strain expressing the candidate enzyme is grown in the presence of the substrate for which activity is desired. Samples of the culture are removed periodically and the cells are removed via centrifugation. The culture supernatant is then analyzed (e.g., by LC-MS) to determine how much of the substrate has been removed and how much of a given product is present.
(§1) The aldehyde dehydrogenase linked reaction was used for step A5.

[8] = system: L-glutamate 5-semialdehyde (GSA); test: In vitro substrate conversion assay, step A3; assay type: biochemical; parameters: key: +: measureable activity detected in the assay; −: no measurable activity detected in the assay; settings: BDO biosynthetic pathway step A3
Method: In Vitro Substrate Conversion. Most of the enzyme assays described above are based on recording changes in absorbance at a given wavelength. In addition to such spectrophotometric readouts, these assays can also be analyzed by more direct methods using an endpoint assay where the reaction is terminated after a given period of time and the mixture is analyzed via HPLC or LC-MS methods.
as §1

[9] = system: L-glutamate 5-semialdehyde (GSA); test: Enzyme assay, oxidoreductase (step A3), cell lysates; assay type: biochemical; parameters: key: +: measureable activity detected in the assay; −: no measurable activity detected in the assay; settings: BDO biosynthetic pathway step A3
Method: (§2) Enzyme expression and crude lysate preparation. The enzymatic activity of each candidate enzyme is evaluated, first in E. coli and subsequently in C. glutamicum. It will be apparent to one of skill in the art that the expression and lysate preparations may need to be modified depending on the host cell and recombinant gene of interest.
(§3) E. coli: E. coli strains transformed with expression clones, for example, pUC18 or MB4124 based clones having a medium strong constitutive promoter regulating the recombinant gene of interest, are grown aerobically in LB medium (Difco) containing the appropriate antibiotic(s). At an OD600 of 0.5, IPTG is added to a final concentration of 0.25 mM. The cultures are grown to a final OD600 of 1.5 at which time the cells are collected and harvested by centrifugation. Cell pellets are resuspended in BugBuster (Novagen) reagent containing benzonase and lysozyme. Alternatively, E. coli strains transformed with expression clones, are grown overnight aerobically at 37° C. in BHI containing the appropriate antibiotic(s). 300 μL of fresh overnight culture is used to inoculate 2.7 mL BHI containing 0.25 mM IPTG and the appropriate antibiotic. The cultures are grown aerobically for 4-5 hours at 37° C. at which time the cells are collected and harvested by centrifugation. Cell pellets are frozen at −80° C. for at least 15 minutes, then thawed and resuspended in BugBuster (Novagen) reagent. Lysis and lysate collection are performed according to the manufacturer's instructions and, for example, may involve use of a sonicator and/or French press. Cleared lysates are stored on ice until enzyme assays are performed.
C. glutamicum: C. glutamicum strains transformed with MB4124 expression clones containing the recombinant gene of interest are grown aerobically in BHI broth supplemented with the proper antibiotic(s). At an OD600 of 0.5, IPTG is added to a final concentration of 0.25 mM. The cultures are grown to a final OD600 of 1.5 at which time the cells are collected and harvested by centrifugation. The pellet is washed once in one volume of water and resuspended in lysis buffer (1.0 ml 1.0 M HEPES buffer, pH 7.5, 0.5 ml 1M KOH, 10 μl 0.5M EDTA, protease inhibitor cocktail, water to 5 ml; the final pH will vary depending on the individual enzyme being tested) and one volume of 0.1 mm acid washed glass beads. The mixture is repeatedly alternately vortexed and held on ice for 15 seconds, eight times. After centrifugation for 5 min at 4,000 rpm, the supernatant lysate is removed and respun for 20 min at 10,000 rpm. Alternatively, C. glutamicum strains transformed with MB4124 expression clones containing the recombinant gene of interest are grown aerobically overnight in BHI broth supplemented with the proper antibiotic(s). Five mL of fresh overnight culture is used to inoculate 200 mL BHI containing 0.25 mM IPTG and the appropriate antibiotic. The cultures are grown aerobically at 30° C. for 5-7 hours at which time the cells are collected and harvested by centrifugation at 4° C. The pellet is resuspended in 15 mL ice cold 39 mM KH2PO4, 61 mM K2HPO4, 0.5 M KCl and lysed using a BioSpec BeadBeater and following the manufacturer's instructions. […]
(§4) Protein Assays. Protein concentrations in lysates are determined according to the methods of Bradford et al. (Anal. Biochem. 72:248-254 [1976]) or by the method of Smith et al. (Anal. Biochem. 150(1):76-85 [1985]) and lysates are assayed according to the methods below. […]

[10] = system: 4-hydroxybutanal; test: Enzyme assay, oxidoreductase (step A6), cell lysates; assay type: biochemical; parameters: key: +: measureable activity detected in the assay; −: no measurable activity detected in the assay; settings: BDO biosynthetic pathway step A6
Method: as §2
as §3, with “performed. […]” for “performed.”
as §4

[11] = 90 g/L and 135 g/L of BDO, loss of cell viability

OCCCCO [BDO, 1,4-butanediol]
growth in the presence of BDO ([1]; 20 g/L of BDO): able to grow | growth in the presence of BDO [1, 11]: completely inhibited growth | growth in the presence of BDO [2]: grew better than the rest of strains | cell density in the presence of BDO ([3]; 20 g/L of BDO, relative to no-BDO control): approximately twice of the control | growth in the presence of BDO ([3]; 90 g/L and 135 g/L BDO, FIG. 12B): grew poorly | growth in the presence of BDO ([4]; 20 g/L of BDO): able to grow | growth in the presence of BDO [4, 11]: completely inhibited growth | growth in the presence of BDO ([5]; 90 g/L and 135 g/L of BDO): grew better than the rest of strains | growth in the presence of BDO ([5]; 135 g/L BDO, compared with Z. mobilis): grew better than Z. mobilis | tolerance to BDO [6]: greater tolerance than E. coli

B1: NosEAv: Enzyme candidate for BDO biosynthetic pathway step A3, SEQ ID NO. 20 (protein, listed as Anabaena variabilis)
chain: MPKAAVMSAPNQPVVVQQLPDPILEKGGIIVETLYSEVCGTDVHLLHGRLEGVPYPIIPGHFSVGRVVETGGAVSDVNSNLIQPGAIATFLDVHETCYNCWYCLVAKASTRCPQRKVYGVTYSAKEGLLGGWSELIYLKPGVKVLTLPAEVSPKQFIAGGCALPTALHAIDRAQIQIGDVVVVQGCGPVGLSVAILALLSGAGKVIVIDKFESRLAVAKSFGVDETLAIKADDPRQHIERVLELTNGHGADVIIEATGIPIAVKEGLNMTRNGGRYVIVGHYTNTGEILINPHLEINLKHIDIRGTWGIDFSHFYRMIELLKRHSDPKKNIAWENLISRSYTLNEINQALTDVERGSVLKAVIQPNLS
Bioconversion Assay [7]: + | In Vitro Substrate Conversion Assay [8]: + | Enzyme Assay [9]: −

B2: DhaTCf: Enzyme candidate for BDO biosynthetic pathway step A6, SEQ ID NO. 48 (protein, listed as Citrobacter freundii)
chain: MSYRMFDYLVPNVNFFGPNAISVVGERCKLLGGKKALLVTDKGLRAIKDGAVDKTLTHLREAGIDVVVFDGVEPNPKDTNVRDGLEVFRKEHCDIIVTVGGGSPHDCGKGIGIAATHEGDLYSYAGIETLTNPLPPIVAVNTTAGTASEVTRHCVLTNTKTKVKFVIVSWRNLPSVSINDPLLMLGKPAPLTAATGMDALTHAVEAYISKDANPVTDAAAIQAIRLIARNLRQAVALGSNLKARENMAYASLLAGMAFNNANLGYVHAMAHQLGGLYDMPHGVANAVLLPHVARYNLIANPEKFADIAEFMGENTDGLSTMDAAELAIHAIARLSADIGIPQHLRDLGVKEADFPYMAEMALKDGNAFSNPRKGNEKEIAEIFRQAF
Enzyme Assay [10]: −

B3: AdhBZm: Enzyme candidate for BDO biosynthetic pathway step A6, SEQ ID NO. 50 (protein, listed as Zymomonas mobilis)
chain: MASSTFYIPFVNEMGEGSLEKAIKDLNGSGFKNALIVSDAFMNKSGVVKQVADLLKAQGINSAVYDGVMPNPTVTAVLEGLKILKDNNSDFVISLGGGSPHDCAKAIALVATNGGEVKDYEGIDKSKKPALPLMSINTTAGTASEMTRFCIITDEVRHVKMAIVDRHVTPMVSVNDPLLMVGMPKGLTAATGMDALTHAFEAYSSTAATPITDACALKAASMIAKNLKTACDNGKDMPAREAMAYAQFLAGMAFNNASLGYVHAMAHQLGGYYNLPHGVCNAVLLPHVLAYNASVVAGRLKDVGVAMGLDIANLGDKEGAEATIQAVRDLAASIGIPANLTELGAKKEDVPLLADHALKDACALTNPRQGDQKEVEELFLSAF
Enzyme Assay [10]: +

B4: NosEN: Enzyme candidate for BDO biosynthetic pathway step A3, SEQ ID NO. 16 (protein, listed as Nostoc sp.)
chain: MPLAAVMTAPNQPVEVQQLPDPILEKGGIILETLYSEVCGTDVHLLHGRLEGVPYPIIPGHFSVGRVVETGGAVSDVNGKLIQPGAIATFLDVHETCYNCWYCLVAKASTRCPQRKVYGVTYSAKDGLLGGWSELIYLKPGVKVLTLPEEVSPKQFIAGGCALPTALHAIDRAQIQIGDVVVVQGCGPVGLSAAILALLSGAGKVIVIDKFESRLVVAKSFGVDETLAIKADDPRQHIERVLELTNGHGADVTIEATGIPIAVKEGLNMTRNGGRYVIVGHYTNTGEILINPHLEINLKHIDIRGTWGIDFSHFYRMIELLKRHSDSSKNIAWSSIISRSYTLKEINQALADVEQGSVLKAVIQPNLS
Bioconversion Assay [7]: + | In Vitro Substrate Conversion Assay [8]: + | Enzyme Assay [9]: −

B5: NosENp: nosE alcohol dehydrogenase from Nostoc punctiforme, step A3 enzyme candidate, SEQ ID NO. 18 (protein)
chain: B4 chain with D21E, L31I, Q114K, K230R, A351V
modifications: Nostoc punctiforme
Bioconversion Assay [7]: + | In Vitro Substrate Conversion Assay [8]: + | Enzyme Assay [9]: +
